We go through three molecules from patent US20030027180, “Nucleic acid shuffling” (published 2003).

What is called Kd is the equilibrium constant for the complex coming apart.

In data set [1] the target is T1, streptavidin (UniProt P22629 P22629:25-183). The experiment in a line: filter; affinity comparable to error-prone PCR evolved sequences; no own Kd printed. The settings on record: tags: Sigma; chain copies: 4; stem-loop predicted by Mfold. As for the experimental part: (§1) Binding affinity assays: Affinities for streptavidin were measured using a radioactive filter binding assay. Pools or individual clones were amplified by PCR. One pmol was radiolabeled with 15 units T4 PNK and 10 μCi γ-³²P ATP (NEN) in T4 PNK buffer at 37° C., 1 h. Labeled DNA was extracted twice with phenol-chloroform and purified twice by gel filtration to remove ATP. The DNA was then denatured in water at 95° C. for 5 min together with 2 μg human genomic DNA (to block nonspecific DNA binding) per 5 fmol labeled DNA, and chilled in ice water for 5 mins. 5 fmol of labeled DNA plus 2 μg unlabeled human genomic DNA was added to varying amounts of streptavidin (0 to 1024 nM) in 50 μL of 100 mM NaCl, 50 mM Tris-Cl pH 8.0, 5 mM MgCl₂ (“assay buffer”), giving a final concentration of labeled DNA of 0.1 nM. The DNA and streptavidin were incubated at room temperature for 30 minutes. A multiscreen-HA 96 well nitrocellulose filter plate (Millipore), which retains protein-DNA complexes much better than free DNA, was pre-washed with 125 μL assay buffer then loaded with each assay sample. The samples were rapidly filtered on a vacuum manifold and the membranes washed twice with 250 uL of assay buffer. The membrane for each well was punched out from the plate using a stylus and the bound radioactive label quantitated by phosphorimager together with 1 fmol of unreacted probe.

Data set [2] has as its target T1, streptavidin. Kind of data set: filter; no streptavidin affinity. The settings on record: tags: Sigma; chain copies: 4. The procedure: as §1
Data set [3] addresses T1, streptavidin. Kind of data set: filter; 100 mM NaCl, 50 mM Tris pH 8.0, 5 mM MgCl2, room temperature, human genomic DNA competitor. The settings on record: tags: Sigma; chain copies: 4; label: 5'-32P. As for the experimental part:
as §1

T1 sequence (P22629 25-183, one chain of several): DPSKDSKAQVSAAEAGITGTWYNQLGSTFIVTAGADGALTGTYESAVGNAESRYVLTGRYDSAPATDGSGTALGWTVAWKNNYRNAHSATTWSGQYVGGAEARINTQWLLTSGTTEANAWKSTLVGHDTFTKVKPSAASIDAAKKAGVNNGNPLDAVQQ

Regarding TCTGTGAGACGACGCACCGGTCGCAGGTTTTGTCTCACAG (ssDNA) [minimal 40-mer], in data set [1], the binding result is “binds”.

On to CTGTGAGACAAAACCTGCGACCGGTGCGTCGTCTCACAGA (ssDNA) [complement strand of minimal 40-mer], for which the binding result in data set [2] is recorded as “no binding”.

B1: 13x16 #1 (ssDNA)
DNA: GAAAACTGCTCATATGATTGATTAGCCCGCTGCTCGTCCAAATGACGGCTCAGCTCTGTATTTTTAGCGTCTGTGAGACAGAACCTGCGACCGGTGCGTCGTCTCACAGTCTACTGTATCTTCGCGTACCTTAGGTTTACCCGCTGCTCGTCCAAATGACGGCTCTCTGTGAGACAAAACCTGCGACCGGTGCGTCGTCTCACAGTAAGAGGGTTCTTGGATA
For the molecule B1, binding in data set [3] was characterised by a dissociation constant (Kd) of 4.7 nM.
